Measured values taken from patent US20020090382A1, “Antiviral compounds and methods” (University of Pittsburgh of the Commonwealth System of …, priority 2000, published 2002).

What was measured:
HveA on CHO-HveA cells = HveA on CHO-HveA cells (UniProt Q92956); test: cell-based or functional assay
HveC on CHO-HveC cells = HveC on CHO-HveC cells (UniProt Q15223); test: cell-based or functional assay
Chain of HveC on CHO-HveC cells (Q15223 31-517 limits assumed): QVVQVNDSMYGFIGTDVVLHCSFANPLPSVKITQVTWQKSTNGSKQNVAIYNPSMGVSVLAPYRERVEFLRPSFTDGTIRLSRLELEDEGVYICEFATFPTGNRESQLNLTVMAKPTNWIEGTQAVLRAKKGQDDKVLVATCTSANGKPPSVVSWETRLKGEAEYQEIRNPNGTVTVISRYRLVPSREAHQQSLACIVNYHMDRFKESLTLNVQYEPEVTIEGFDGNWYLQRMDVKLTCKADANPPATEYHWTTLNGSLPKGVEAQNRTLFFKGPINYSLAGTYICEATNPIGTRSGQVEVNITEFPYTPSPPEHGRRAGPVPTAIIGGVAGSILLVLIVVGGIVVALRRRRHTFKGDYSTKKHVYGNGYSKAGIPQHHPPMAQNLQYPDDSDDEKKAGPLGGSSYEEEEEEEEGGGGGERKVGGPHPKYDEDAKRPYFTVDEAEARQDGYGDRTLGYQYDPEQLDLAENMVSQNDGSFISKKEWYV

Chain of HveA on CHO-HveA cells (Q92956 39-283 limits assumed): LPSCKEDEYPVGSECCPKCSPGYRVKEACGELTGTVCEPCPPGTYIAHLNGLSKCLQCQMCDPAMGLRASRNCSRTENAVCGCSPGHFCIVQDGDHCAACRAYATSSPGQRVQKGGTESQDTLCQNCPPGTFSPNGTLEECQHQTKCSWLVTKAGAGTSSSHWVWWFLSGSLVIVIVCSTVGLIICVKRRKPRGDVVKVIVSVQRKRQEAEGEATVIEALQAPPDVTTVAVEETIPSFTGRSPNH

Substance	% Complementation, CHO-HveA (HveA on CHO-HveA cells)	% Complementation, CHO-HveC (HveC on CHO-HveC cells)
gD A7H (ligand)	80%	100%
gD A7L (ligand)	0%	100%
gD A7R (ligand)	0%	98%
gD D6A (ligand)	0%	99%
gD D6L (ligand)	0%	98%
gD D26H (from UniProt A1Z0Q5 26-394) (ligand)	10%	11%
gD D26S (ligand)	20%	7%
gD D26V (ligand)	0%	26%
gD D30H (from UniProt A1Z0Q5 26-394) (ligand)	0%	6%
gD D30I (ligand)	0%	4%
gD D30V (ligand)	0%	8%
gD G33L (from UniProt A1Z0Q5 26-394) (ligand)	9%	79%
gD H39Q (ligand)	50%	100%
gD H39V (ligand)	75%	66%
gD I40A (ligand)	0%	0%
gD I40N (from UniProt A1Z0Q5 26-394) (ligand)	0%	0%
gD K1D (ligand)	100%	100%
gD L9A (ligand)	0%	100%
gD L9P (ligand)	0%	100%
gD L9R (ligand)	0%	97%
gD L25D (from UniProt A1Z0Q5 26-394) (ligand)	0%	14%
gD L25H (from UniProt A1Z0Q5 26-394) (ligand)	0%	12%
gD L25I (from UniProt A1Z0Q5 26-394) (ligand)	0%	5%
gD L25T (from UniProt A1Z0Q5 26-394) (ligand)	0%	3%
gD L28C (ligand)	0%	100%
gD L28F (ligand)	0%	41%
gD L28G (ligand)	0%	100%
gD L28P (ligand)	0%	69%

Substance	% Complementation, CHO-HveA (HveA on CHO-HveA cells)	% Complementation, CHO-HveC (HveC on CHO-HveC cells)
gD L28S (ligand)	0%	83%
gD L44C (ligand)	69%	83%
gD L44G (ligand)	0%	8%
gD L44P (ligand)	53%	71%
gD P31G (from UniProt A1Z0Q5 26-394) (ligand)	0%	100%
gD P32H (from UniProt A1Z0Q5 26-394) (ligand)	6%	100%
gD Q27G (ligand)	0%	0%
gD Q27H (ligand)	0%	14%
gD Q27P (rid1) (ligand)	0%	83%
gD Q27S (ligand)	0%	9%
gD Q27T (ligand)	0%	0%
gD Q41P (ligand)	0%	18%
gD R36A (from UniProt A1Z0Q5 26-394) (ligand)	0%	0%
gD R36D (from UniProt A1Z0Q5 26-394) (ligand)	0%	0%
gD R36I (from UniProt A1Z0Q5 26-394) (ligand)	0%	0%
gD S8A (ligand)	40%	100%
gD S8L (ligand)	0%	99%
gD T29G (ligand)	0%	100%
gD T29Y (ligand)	0%	100%
gD^-R (gD A5I) (ligand)	85%	100%
gDΔ2-5 (ligand)	0%	95%
gDΔ6-9 (ligand)	0%	100%
gDΔ6-24:GSK (ligand)	0%	19%
gDΔ10-16 (ligand)	0%	100%
gDΔ17-21 (ligand)	0%	100%
gDΔ21-24 (ligand)	0%	100%
wild-type gD (HSV-1 strain KOS) (ligand)	100%	100%
